Experimental data taken from patent US12673985B2, “Method for the treatment or prophylaxis of cancer by targeting the extracellular portion of keratin 14 (KRT14) residing on cancer cells” (Hudson Institute of Medical Research, priority 2019, dated 2026).
“Also recorded” adds a separate entry of the source.

Columns and labels:
[1] = system: SJ-GBM2 primary glioblastoma multiforme; experiment: In vitro wound repair assay; format: cell-based; settings: mAb 1 μg/ml; 16 hrs
Experimental: In vitro wound repair assays were conducted on the following cancer cell lines: BT16 atypical teratoid rhabdoid (brain) carcinoma, NCI-H1573 lung adenocarcinoma, SJ-GBM2 primary glioblastoma multiforme, AN3CA endometrial carcinoma, SW620 colorectal carcinoma and MDA-MB-468 breast carcinoma. Cells were grown in complete medium to confluency in a 12-well plate, and subsequently serum-starved overnight to synchronize at G0. The following day, cell culture medium was removed and the cell monolayers were wounded by scraping with a pipette tip attached to suction. Non-adherent cells were removed by gentle washes with phosphate buffered saline (PBS) and complete growth medium was added to each well, in either the absence or presence of mAb AN-17 (at 1 μg/ml). The wound area was imaged every hour for 0-24 hours. Wound closure was measured in image series using AnalySIS LS Research Software (Olympus) to determine the area of the wound on each day. Experiments were repeated in triplicate with at least six wound areas observed per growth condition.

KRT14+ CTCs = experiment: Flow cytometry detection of circulating tumour cells in blood of mice bearing ID8 iRFP720+ epithelial ovarian tumours; format: cell-based; settings: confirmed by iRFP720+ status
Experimental: Flow cytometry was carried out according to standard protocols (PMID: 30602661), with data acquired using a BD LSRFortessa X-20 (BD Biosciences) and analysed using FlowJo software v10.5.0 (BD Biosciences). Samples assessed for KRT14+ cell populations included OVCAR3, CAOV4, ID8 mouse ovarian cancer cells, ascites-derived ovarian cancer cells derived from a clinical specimen (designated #3.1937-07) and cardiac blood from a mice bearing 12-week old epithelial ovarian tumours. For cell lines, 1×10^6 cells per cell line were incubated with either mAb AN-17 (1:200 dilution) or a commercially available anti-KRT14 polyclonal antibody (Sigma SAB4501657; 1:50 dilution) as a positive control for 45 mins in non-immune serum at room temperature. The secondary antibodies, goat anti-mouse Alexa647 (mAb AN-17) or goat anti-rabbit IgG Alexa 488 (commercial Ab), were diluted 1:500 and incubated for 30 minutes. For blood samples, 2×10^6 cells were incubated with an Alexa Fluor®488-conjugated mAb AN-17 antibody for 45 minutes. Following PBS washes, cells were resuspended in PBS/2% FBS data was acquired using a BD LSRFortessa X-20 (BD Biosciences) flow cytometer.
Expression of extracellular KRT14 also marks the circulating tumour cell (CTC) population.

KRT14 = target: T1, KRT14 (Homo sapiens, UniProt P02533); experiment: Immunohistochemical staining of FFPE tumour tissue sections; settings: 2 μg/ml-0.25 μg/ml, overnight incubation
T1 sequence (P02533 1-472): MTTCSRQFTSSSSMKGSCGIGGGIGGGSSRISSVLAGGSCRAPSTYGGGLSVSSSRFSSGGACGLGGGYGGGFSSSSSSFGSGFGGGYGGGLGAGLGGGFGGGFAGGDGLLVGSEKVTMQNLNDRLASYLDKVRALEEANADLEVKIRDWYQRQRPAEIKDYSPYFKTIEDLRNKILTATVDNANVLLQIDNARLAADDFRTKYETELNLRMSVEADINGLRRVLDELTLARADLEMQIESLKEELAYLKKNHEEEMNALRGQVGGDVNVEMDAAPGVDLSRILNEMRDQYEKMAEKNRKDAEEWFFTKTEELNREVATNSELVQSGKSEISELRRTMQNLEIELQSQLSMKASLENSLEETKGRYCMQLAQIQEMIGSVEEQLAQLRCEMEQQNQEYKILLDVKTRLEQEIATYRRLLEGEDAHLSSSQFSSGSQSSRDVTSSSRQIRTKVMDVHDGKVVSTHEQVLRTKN
Experimental: Human Tissue Arrays and Immunohistochemistry. Immunohistochemistry was performed on tissue micrarray (TMA) sections purchased from USBIOMAX (#ov2085, #ov20811) or generated in house (tumour and fallopian tube) as previously described [Bilandzic et al. (2014) Cancer Lett 354(1):107-114; Rainczuk et al. (2013) J Proteome Res; Salamonsen et al. (2013) Fertil Steril 99(4):1086-92](Supplementary Data 6 and 7). For antigen retrieval, sections were incubated for 10 minutes in 50 mM glycine (pH 3.5) at 90° C. Sections were incubated overnight at 4° C. with Rb-KRT14 antibody (1:100, Sigma, SAB4501657) and mAb AN-17 (1:500) in 0.1% w/v BSA/PBS. Subsequent steps were performed at room temperature, with PBS washes between incubations. […] Antibody binding was detected as a brown precipitate after development with 3,3′-diaminobenzidine tetrahydrochloride, and Harris hematoxylin was used as counterstain. […] Positive immunostaining was assessed relative to parallel sections exposed to an isotype (IgG) control. Immunostaining in tumor and stromal tissue was assessed using Aperio ImageScope (v 12.3.3) as described (Rainczuk et al. (2013) supra). […]

[2] = Assessment of mAb AN-17 toxicity, single intraperitoneal dose; format: in vivo, mice
Experimental: Doses of 0.5, 1.0. 2.5, 5.0 and 10 mg/kg were assessed. After 7 days mice were culled, and examined post mortem for any evidence of toxicity (macroscopic tissue appearance, presence of inflammation, or any obvious lesions).

B1: mAb AN-17: monoclonal anti-KRT14 antibody; heavy chain variable region SEQ ID NO:3, light chain variable region SEQ ID NO:5 (clone AN-17A RG4.E5b.A7.B4) (antibody, listed as Mus musculus, V domains shown)
VH: QVQLKESGPGLVAPSQSLSITCTVSGFSLSRYSVHWVRQPPGKGLEWLGMIWGGGSTDYNSALKSRLSISKDNSKSQVFLKMNSLQTDDTAMYYCARKDYGYSYFDYWGQGTTLTVSS
VL: DVLMTQTPLSLPVSLGDQASISCRSSQSIVHSNGNTYLEWYLQKPGQSPKLLIYKVSNRFSGVPDRFSGSGSGTDFTLKISRVEAEDLGVYYCFQGSHVPFTFGSGTKLEIKRADAAPTVS
[1]
  wound closure / migration, SJ-GBM2: failed to close the wound; also recorded: impaired
KRT14+ CTCs
  identification of circulating tumour cells from whole blood: able to detect and isolate KRT14+ CTCs
KRT14+ CTCs; listed as mAB AN-17
  identification of circulating tumour cells from whole blood: able to correctly identify iRFP+ cells from whole blood
KRT14
  staining localization in tumour tissue: Staining was restricted to tumour epithelium
KRT14; listed as mAb A-17
  staining localization in tumour tissue: staining observed specifically in the tumour epithelium
[2]; doses up to 10 mg/kg i.p.
  maximum tolerated dose: not reached
[2]; single i.p. dose 0.5, 1.0, 2.5, 5.0 and 10 mg/kg, up to 7 days and post mortem
  evidence of toxic effects: No evidence of toxic effects; also recorded: no toxicity noted at any dose or any time point
